Reference: US20150344587A1

How the values were obtained:
[1] = target: CD20 (UniProt P11836); assay: binding to CD20 after 37° C. for 3 days; method not stated
[2] = target: CD20 (UniProt P11836); assay: binding to CD20 after 37° C. for 7 days; method not stated

- loss of binding affinity [1]: 10%
- loss of binding affinity [2]: 20%
Substance: (Fucα1,6)GlcNAc-Rituximab (antibody)
